From patent US20090297438A1, “Human Monoclonal Antibodies to Prostate Specific Membrane Antigen (PSMA)” (priority 2005, published 2009)
“Also recorded” adds a separate entry of the source.

B1: 2F5: human monoclonal anti-PSMA antibody, VH SEQ ID NO: 3, VL SEQ ID NO: 7 (antibody, listed as Homo sapiens, V domains shown)
VH: EVQLVQSGAEVKKPGESLKISCKGSGYSFTSNWIGWVRQMPGKGLEWMGIIYPGDSDTRYSPSFQGQVTISADKSISTAYLQWNSLKASDTAMYYCARQTGFLWSFDLWGRGTLVTVSS
VL: AIQLTQSPSSLSASVGDRVTITCRASQDISSALAWYQQKPGKAPKLLIYDASSLESGVPSRFSGSGSGTDFTLTISSLQPEDFATYYCQQFNSYPLTFGGGTKVEIKIK
B2: 2C6: human monoclonal anti-PSMA antibody, VH SEQ ID NO: 4, VL SEQ ID NO: 8 (antibody, listed as Homo sapiens, V domains shown)
VH: EVQLVQSGSEVKKPGESLKISCKGSGYSFTNYWIGWVRQMPGKGLEWMGIIYPGDSDTRYSPSFQGQVTISADKSISTAYLQWSSLKASDTAMYYCASPGYTSSWTSFDYWGQGTLVTVSS
VL: EIVLTQSPATLSLSPGERATLSCRASQSVSSYLAWYQQKPGQAPRLLIYDASNRATGIPARFSGSGSGTDFTLTISSLEPEDFAVYYCQQRSNWPLFTFGPGTKVDIK
B3: 1C3: human monoclonal anti-PSMA antibody, VH SEQ ID NO: 1, VL SEQ ID NO: 5 (antibody, listed as Homo sapiens, V domains shown)
VH: QVQLVESGGGVVQPGRSLRLSCAASGFTFSSYAMHWVRQAPGKGLEWVAVISYDGNNKYYADSVKGRFTISRDNSKNTLYLQMNSLRAEDTAVYYCARAVPWGSRYYYYGMDVWGQGTTVTVSS
VL: AIQLTQSPSSLSASVGDRVTITCRASQGISSALAWYQQKSGKAPKLLIFDASSLESGVPSRFSGSGSGTDFTLTISSLQPEDFATYYCQQFNSYPLTFGGGTKVEIK

Assays:
[1] = target: T1, PSMA-expressing LNCaP cells (Homo sapiens, UniProt Q04609); experiment: Binding specificity by flow cytometry; details: FITC-labeled anti-human IgG detection, different antibody concentrations
T1 construct: host or cells: LNCaP human prostate cancer cells
Procedure: The human PSMA-expressing prostate cancer cell line LNCaP was used to determine the specificity of anti-PSMA human monoclonal antibodies by flow cytometry. Binding of the 2F5, 2A10, and 2C6 anti-PSMA human monoclonal antibodies was assessed by incubating the LNCaP cells with the anti-PSMA human monoclonal antibodies at different concentrations. The cells were washed and binding was detected with a FITC-labeled anti-human IgG Ab. Flow cytometric analyses were performed using a FACScan flow cytometry (Becton Dickinson, San Jose, Calif.). The human anti-PSMA monoclonal antibody 7F12 (as described in PCT Publication WO 03/064606) was used as a positive control and a non-PSMA specific isotype control antibody was used as a negative control. The results are depicted in FIG. 9.

[2] = target: T2, PSMA immunopurified from LNCaP cells (Homo sapiens, UniProt Q04609); experiment: Binding specificity by ELISA; details: antibody from 5 μg/ml, 1:2 serial dilutions
T2 construct: endogenous in cells; host or cells: LNCaP cells (protein immunopurified from them)
Procedure: A comparison of anti-PSMA antibodies on binding to immunopurified PSMA was performed by standard ELISA to examine the specificity of binding for PSMA.
PSMA was immunopurified from LNCaP cells and tested for binding against the anti-PSMA human monoclonal antibodies 1C3, 2A10, 2F5, and 2C6. Standard ELISA procedures were performed. The anti-PSMA human monoclonal antibodies were added at a concentration of 5 μg/ml and titrated down at 1:2 serial dilutions. Goat-anti-human IgG (kappa chain-specific) polyclonal antibody conjugated with horseradish peroxidase (HRP) was used as secondary antibody. The human anti-PSMA monoclonal antibody 7F12 was used as a positive control and a blank was used as a negative control.

T2 sequence (Q04609 whole entry): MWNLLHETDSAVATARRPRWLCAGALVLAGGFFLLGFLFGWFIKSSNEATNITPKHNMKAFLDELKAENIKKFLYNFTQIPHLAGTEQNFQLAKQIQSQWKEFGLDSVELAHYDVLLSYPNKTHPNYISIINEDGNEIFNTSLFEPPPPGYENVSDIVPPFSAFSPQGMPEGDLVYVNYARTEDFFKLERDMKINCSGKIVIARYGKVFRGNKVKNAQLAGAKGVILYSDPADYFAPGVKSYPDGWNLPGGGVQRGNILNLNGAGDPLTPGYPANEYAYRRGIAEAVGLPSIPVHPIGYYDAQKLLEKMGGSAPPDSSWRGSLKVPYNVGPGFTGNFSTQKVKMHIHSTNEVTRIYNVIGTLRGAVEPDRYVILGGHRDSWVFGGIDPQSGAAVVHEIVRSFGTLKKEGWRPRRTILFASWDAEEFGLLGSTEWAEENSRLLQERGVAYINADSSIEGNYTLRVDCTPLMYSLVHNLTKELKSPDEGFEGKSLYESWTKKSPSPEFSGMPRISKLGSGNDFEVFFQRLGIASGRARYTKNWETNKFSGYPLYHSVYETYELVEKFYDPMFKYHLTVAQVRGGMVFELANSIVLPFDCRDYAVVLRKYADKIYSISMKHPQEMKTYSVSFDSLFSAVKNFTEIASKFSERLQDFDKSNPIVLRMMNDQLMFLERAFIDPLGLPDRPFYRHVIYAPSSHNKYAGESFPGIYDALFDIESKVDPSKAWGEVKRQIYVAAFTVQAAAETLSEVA
T1 sequence (Q04609 whole entry): as above

Row | Molecule | binding to PSMA-expressing LNCaP cells [1] | binding to immunopurified PSMA [2]
1 | B1 | bound specifically; also recorded: binds the cell surface of PSMA-expressing LNCaP cells | bound with high specificity
2 | B2 | bound specifically; also recorded: binds the cell surface of PSMA-expressing LNCaP cells | detectable but only low level binding
3 | B3 |  | detectable but only low level binding
